The results in this text go back to IntAct's records for PubMed 15886098.

To fix the notation:
B1: Ras and Rab interactor 1 (Homo sapiens), Q13671 (parent)
chain: MESPGESGAGSPGAPSPSSFTTGHLAREKPAQDPLYDVPNASGGQAGGPQRPGRVVSLRERLLLTRPVWLQLQANAAAALHMLRTEPPGTFLVRKSNTRQCQALCMRLPEASGPSFVSSHYILESPGGVSLEGSELMFPDLVQLICAYCHTRDILLLPLQLPRAIHHAATHKELEAISHLGIEFWSSSLNIKAQRGPAGGPVLPQLKARSPQELDQGTGAALCFFNPLFPGDLGPTKREKFKRSFKVRVSTETSSPLSPPAVPPPPVPVLPGAVPSQTERLPPCQLLRRESSVGYRVPAGSGPSLPPMPSLQEVDCGSPSSSEEEGVPGSRGSPATSPHLGRRRPLLRSMSAAFCSLLAPERQVGRAAAALMQDRHTAAGQLVQDLLTQVRAGPEPQELQGIRQALSRARAMLSAELGPEKLLSPKRLEHVLEKSLHCSVLKPLRPILAARLRRRLAADGSLGRLAEGLRLARAQGPGAFGSHLSLPSPVELEQVRQKLLQLLRTYSPSAQVKRLLQACKLLYMALRTQEGEGAGADEFLPLLSLVLAHCDLPELLLEAEYMSELLEPSLLTGEGGYYLTSLSASLALLSGLGQAHTLPLSPVQELRRSLSLWEQRRLPATHCFQHLLRVAYQDPSSGCTSKTLAVPPEASIATLNQLCATKFRVTQPNTFGLFLYKEQGYHRLPPGALAHRLPTTGYLVYRRAEWPETQGAVTEEEGSGQSEARSRGEEQGCQGDGDAGVKASPRDIREQSETTAEGGQGQAQEGPAQPGEPEAEGSRAAEE
B2: Tyrosine-protein kinase ABL2 (Homo sapiens), P42684 (parent)
chain: MGQQVGRVGEAPGLQQPQPRGIRGSSAARPSGRRRDPAGRTTETGFNIFTQHDHFASCVEDGFEGDKTGGSSPEALHRPYGCDVEPQALNEAIRWSSKENLLGATESDPNLFVALYDFVASGDNTLSITKGEKLRVLGYNQNGEWSEVRSKNGQGWVPSNYITPVNSLEKHSWYHGPVSRSAAEYLLSSLINGSFLVRESESSPGQLSISLRYEGRVYHYRINTTADGKVYVTAESRFSTLAELVHHHSTVADGLVTTLHYPAPKCNKPTVYGVSPIHDKWEMERTDITMKHKLGGGQYGEVYVGVWKKYSLTVAVKTLKEDTMEVEEFLKEAAVMKEIKHPNLVQLLGVCTLEPPFYIVTEYMPYGNLLDYLRECNREEVTAVVLLYMATQISSAMEYLEKKNFIHRDLAARNCLVGENHVVKVADFGLSRLMTGDTYTAHAGAKFPIKWTAPESLAYNTFSIKSDVWAFGVLLWEIATYGMSPYPGIDLSQVYDLLEKGYRMEQPEGCPPKVYELMRACWKWSPADRPSFAETHQAFETMFHDSSISEEVAEELGRAASSSSVVPYLPRLPILPSKTRTLKKQVENKENIEGAQDATENSASSLAPGFIRGAQASSGSPALPRKQRDKSPSSLLEDAKETCFTRDRKGGFFSSFMKKRNAPTPPKRSSSFREMENQPHKKYELTGNFSSVASLQHADGFSFTPAQQEANLVPPKCYGGSFAQRNLCNDDGGGGGGSGTAGGGWSGITGFFTPRLIKKTLGLRAGKPTASDDTSKPFPRSNSTSSMSSGLPEQDRMAMTLPRNCQRSKLQLERTVSTSSQPEENVDRANDMLPKKSEESAAPSRERPKAKLLPRGATALPLRTPSGDLAITEKDPPGVGVAGVAAAPKGKEKNGGARLGMAGVPEDGEQPGWPSPAKAAPVLPTTHNHKVPVLISPTLKHTPADVQLIGTDSQGNKFKLLSEHQVTSSGDKDRPRRVKPKCAPPPPPVMRLLQHPSICSDPTEEPTALTAGQSTSETQEGGKKAALGAVPISGKAGRPVMPPPQVPLPTSSISPAKMANGTAGTKVALRKTKQAAEKISADKISKEALLECADLLSSALTEPVPNSQLVDTGHQLLDYCSGYVDCIPQTRNKFAFREAVSKLELSLQELQVSSAAAGVPGTNPVLNNLLSCVQEISDVVQR
partner: B1 chain

One test covers variants of B1. To be noted: with abl2_human ABL2, P42684.
Regarding Y36F;Y121F;Y148F, the “effect of a mutation on the interaction” value was “decreasing interaction”.

The variants in another test derive from B2. To be noted: with rin1_human RIN1, Q13671.
On to K317R, for which the “effect of a mutation on the interaction” value is “decreasing interaction”.
